Test results reported in US12258605B2, “Alkane oxidation by modified hydroxylases” (The California Institute of Technology, priority 2005, dated 2025).

How the values were obtained:
[1] = Methane to methanol conversion (alcohol oxidase/Purpald); type: biochemical; details: for Methane TTN: methane to methanol
Protocol: The 35-E11 variant was tested for the ability to convert methane to methanol using the method of Anthon and Barrett (Agric. Food Chem., 52:3749 (2004)). The method was optimized so that it could detect methanol concentrations in water as low as 10 μM.
The mutant BM-3 enzymes described below were purified using published procedures and used as catalysts in small reactions with methane. In glass head space vials containing magnetic stirring bars, BM-3 catalyst was added to 0.1 M potassium phosphate buffer (pH=8) saturated with methane. The vials were then crimped shut and charged to 20 psi with methane. To start the biotransformation, an NADPH regeneration system consisting of NADP+, isocitrate, and isocitric dehydrogenase was added through a syringe. The reaction was allowed to stir 12-15 hours. Methanol production was measured using a coupled enzyme assay. Aliquots of the reaction were transferred to 96-well microtitre plates and reacted with the enzyme alcohol oxidase for 5 minutes at room temperature. Alcohol oxidase converts the methanol produced by the BM-3 variants into formaldehyde which can be detected with the dye Purpald. To detect formaldehyde and quench the alcohol oxidase reaction, a solution of Purpald in 2 M NaOH was added and allowed to react for one hour. The purple color that Purpald forms in the presence of formaldehyde was quantified one hour later by spectrophotometrically reading the well at 550 nm and comparing the absorbance against similarly-treated solutions of BM-3, NADPH regeneration system, and methane-free buffer spiked with known concentrations of methanol. The results of these biotransformations are reported in Table 3 and sample spectra from the colorimetric assay are shown in FIG. 7.
Reactions for enzyme-catalyzed conversion of methane to methanol were carried out in 10 mL glass headspace vials. A 470 μL reaction mixture containing 5 μM purified BM-3 variant in 0.1 M potassium phosphate buffer (pH 8.0) was first added to the vial. The vial was immediately topped with a septum, pressurized with 30 psi of methane and shaken at 4° C. for 1 hour. […] For determination of total turnover, the reaction was allowed to proceed for 20 hours at room temperature.
The amount of methanol product formed during the 20 hr methane reaction was quantified colorimetrically with the use of alcohol oxidase and Purpald. 190 μL of the reaction mixture is transferred onto a single cell of a 96 well plate. 10 μL of 0.05 U/μL solution of alcohol oxidase (from Pichia pastoris, purchased from Sigma-Aldrich) was added to cell and allowed to incubate at room temperature for 5 minutes. During this time, the alcohol oxidase converts the methanol into formaldehyde. Purpald (168 mM in 2 M NAOH) was then added to form a purple product with the formaldehyde in solution. The purple color was read approximately 1 hour later at 550 nm using a Spectramax Plus microtiter plate reader. The concentration of methanol was determined based on the measure absorbance in comparison to a methanol calibration curve. The methanol calibration curve was generated with several standards. Each standard contained 100 μL of a methanol solution (10, 20, 40, 60, 100 μM) and 90 μL of the methane reaction mixture described above, without the methane pressurization.
The relative dimethyl ether (DME) activity was measured, 1 hour after treatment with Purpald, as the average net and absorbance at 550 nm from 8 microtitre plate DME reactions of the mutant compared to 8 equivalent reactions of 35-E11. All values were normalized by measuring the P450 concentration in each well with CO binding. “Asteriks” indicate criteria used to select mutants from libraries for further characterization. The oxidation rate is measured as absorbance change at 340 nm over 1 minute upon the addition of NADPH to 8 microtitre plate wells containing P450-containing cell lysate and compared to 8 equivalent reactions of 35-E11. […]

[2] = Background NADPH oxidation rate in screen (cell lysate, no substrate); type: biochemical; details: relative to 35-E11
Protocol: Libraries of mutants of 35-E11 were screened for phenotypes indicative of either increased product formation on small gaseous substrates slightly larger than methane. Additionally, they were screened for increased coupling of the consumption of NADPH reducing equivalents to product formation. Product formation was determined by measuring total amount of dimethyl ether hydroxylation while increased coupling was determined primarily by decreased background NADPH consumption rates (measured spectrophotometrically at 340 nm in the absence of substrate).
The relative dimethyl ether (DME) activity was measured, 1 hour after treatment with Purpald, as the average net and absorbance at 550 nm from 8 microtitre plate DME reactions of the mutant compared to 8 equivalent reactions of 35-E11. All values were normalized by measuring the P450 concentration in each well with CO binding. “Asteriks” indicate criteria used to select mutants from libraries for further characterization. The oxidation rate is measured as absorbance change at 340 nm over 1 minute upon the addition of NADPH to 8 microtitre plate wells containing P450-containing cell lysate and compared to 8 equivalent reactions of 35-E11. All values were normalized by measuring the P450 concentration in each well with CO binding. The total turnover number (TTN) was measured as the absorbance at 550 nm of methane reactions with each mutant after treatment with alcohol oxidase and […]

Molecule	methanol production from methane ([1]; assay detects methanol as low as 10 μM)	Methane TTN [1]	Relative background NADPH oxidation rate [2]
35-E11: P450 BM-3 variant, SEQ ID NO:7: 53-5H substitutions plus E464G and I710T (protein, mutant P450 35-E11 protein sequence) TIKEMPQPKTFGELKNLPLLNTDKPVQALMKIADELGEIFKFEAPGCVTRYLSSQRLIKEACDESRFDKNLSQALKFFRDFSGDGLFTSWTHEINWKKAHNILLPSFSQQAMKGYHAMMVDIAVQLVQKWERLNADEHIEVSEDMTRLTLDTIGLCGFNYRFNSFYRDQPHPFIISMVRALDEVMNKLQRANPDDPAYDENKRQCQEDIKVMNDLVDKIIADRKARGEQSDDLLTQMLNGKDPETGEPLDDGNISYQIITFLIAGHETTSGLLSFALYFLVKNPHVLQKVVEEAARVLVDPVPSYKQVKQLKYVGMVLNEALRLWPTFPAFSLYAKEDTVLGGEYPLEKGDEVMVLIPQLHRDKTIWGDDVEEFRPERFENPSAIPQHAFKPFGNGQRACIGQQFALHEATLVLGMMLKHFDFEDHTNYELDIKETLTLKPEGFVVKAKSKKIPLGGIPSPSTGQSAKKVRKKAENAHNTPLLVLYGSNMGTAEGTARDLADIAMSKGFAPQVATLDSHAGNLPREGAVLIVTASYNGHPPDNAKQFVDWLDQASADEVKGVRYSVFGCGDKNWATTYQKVPAFIDETLAAKGAENIADRGEADASDDFEGTYEEWREHMWSDVAAYFNLDIENSEDNKSTLSLQFVDSAADMPLAKMHGAFSTNVVASKELQQPGSARSTRHLEIELPKEASYQEGDHLGVIPRNYEGTVNRVTARFGLDASQQIRLEAEEEKLAHLPLAKTVSVEELLQYVELQDPVTRTQLRAMAAKTVCPPHKVELEALLEKQAYKEQVLAKRLTMLELLEKYPACEMKFSEFIALLPSIRPRYYSISSSPRVDEKQASITVSVVSGEAWSGYGEYKGIASNYLAELQEGDTITCFISTPQSEFTLPKDPETPLIMVGPGTGVAPFRGFVQARKQLKEQGQSLGEAHLYFGCRSPHEDYLYQEELENAQSEGIITLHTAFSRMPNQPKTYVQHVMEQDGKKLIELLDQGAHFYICGDGSQMAPAVEATLMKSYADVHQVSEADARLWLQQLEEKGRYAKDVWAG	producing methanol from methane	8	1
20-D3: P450 BM-3 variant, SEQ ID NO:11; 35-E11 plus H285R (protein, mutant P450 20-D3 protein sequence, 35-E11 plus H285R) TIKEMPQPKTFGELKNLPLLNTDKPVQALMKIADELGEIFKFEAPGCVTRYLSSQRLIKEACDESRFDKNLSQALKFFRDFSGDGLFTSWTHEINWKKAHNILLPSFSQQAMKGYHAMMVDIAVQLVQKWERLNADEHIEVSEDMTRLTLDTIGLCGFNYRFNSFYRDQPHPFIISMVRALDEVMNKLQRANPDDPAYDENKRQCQEDIKVMNDLVDKIIADRKARGEQSDDLLTQMLNGKDPETGEPLDDGNISYQIITFLIAGHETTSGLLSFALYFLVKNPRVLQKVVEEAARVLVDPVPSYKQVKQLKYVGMVLNEALRLWPTFPAFSLYAKEDTVLGGEYPLEKGDEVMVLIPQLHRDKTIWGDDVEEFRPERFENPSAIPQHAFKPFGNGQRACIGQQFALHEATLVLGMMLKHFDFEDHTNYELDIKETLTLKPEGFVVKAKSKKIPLGGIPSPSTGQSAKKVRKKAENAHNTPLLVLYGSNMGTAEGTARDLADIAMSKGFAPQVATLDSHAGNLPREGAVLIVTASYNGHPPDNAKQFVDWLDQASADEVKGVRYSVFGCGDKNWATTYQKVPAFIDETLAAKGAENIADRGEADASDDFEGTYEEWREHMWSDVAAYFNLDIENSEDNKSTLSLQFVDSAADMPLAKMHGAFSTNVVASKELQQPGSARSTRHLEIELPKEASYQEGDHLGVIPRNYEGTVNRVTARFGLDASQQIRLEAEEEKLAHLPLAKTVSVEELLQYVELQDPVTRTQLRAMAAKTVCPPHKVELEALLEKQAYKEQVLAKRLTMLELLEKYPACEMKFSEFIALLPSIRPRYYSISSSPRVDEKQASITVSVVSGEAWSGYGEYKGIASNYLAELQEGDTITCFISTPQSEFTLPKDPETPLIMVGPGTGVAPFRGFVQARKQLKEQGQSLGEAHLYFGCRSPHEDYLYQEELENAQSEGIITLHTAFSRMPNQPKTYVQHVMEQDGKKLIELLDQGAHFYICGDGSQMAPAVEATLMKSYADVHQVSEADARLWLQQLEEKGRYAKDVWAG		10	1.6
